The values that follow are results of earlier work, collected in US12090208B2, “Peptide drug improvement using vitamin B12 and Haptocorrin binding substrate conjugates” (SYRACUSE UNIVERSITY, priority 2017, dated 2024).

The conditions of the series: in vivo.

B1: haptocorrin: serum B12 binding and transport protein (protein, UniProt P20061 24-433, looked up)
Transcobalamin-1: EICEVSEENYIRLKPLLNTMIQSNYNRGTSAVNVVLSLKLVGIQIQTLMQKMIQQIKYNVKSRLSDVSSGELALIILALGVCRNAEENLIYDYHLIDKLENKFQAEIENMEAHNGTPLTNYYQLSLDVLALCLFNGNYSTAEVVNHFTPENKNYYFGSQFSVDTGAMAVLALTCVKKSLINGQIKADEGSLKNISIYTKSLVEKILSEKKENGLIGNTFSTGEAMQALFVSSDYYNENDWNCQQTLNTVLTEISQGAFSNPNAAAQVLPALMGKTFLDINKDSSCVSASGNFNISADEPITVTPPDSQSYISVNYSVRINETYFTNVTVLNGSVFLSVMEKAQKMNDTIFGFTMEERSWGPYITCIQGLCANNNDRTYWELLSGGEPLSQGAGSYVVRNGENLEVRWSKY
Turning to B1, the half-life in blood entry is given as “approximately 10 hours”.
